From patent US20080280333

Target: T1, GlxR (Corynebacterium glutamicum) (UniProt Q79VI7)
T1 sequence: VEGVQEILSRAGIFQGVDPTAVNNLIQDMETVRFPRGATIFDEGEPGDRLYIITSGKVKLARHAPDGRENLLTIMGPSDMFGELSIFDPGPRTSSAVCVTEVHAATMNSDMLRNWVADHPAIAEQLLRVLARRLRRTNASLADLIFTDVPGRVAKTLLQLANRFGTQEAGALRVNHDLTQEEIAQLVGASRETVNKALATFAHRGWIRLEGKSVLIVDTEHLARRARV
Assay: cell_activity

PaceB-lacZYA reporter (aceB promoter region)
activity (mU beta-galactosidase) (E. coli DH5alphaF'-145 with pSL145, 27 mU with empty vector pMT1, repression): 2.5 | activity (beta-galactosidase activity) (E. coli HL994, chromosomal PaceB-lacZYA, 237 with empty vector): 128
